Values belong to the binder of their own block, whether it stands above or below them.
What was measured:
[1] = target: T1, mouse CD7 (ACROBiosystems, CD7-M52H3) (mouse, UniProt P50283 24-150); experiment: indirect ELISA, plate coated with 1 µg/ml mouse CD7
T1 construct: Bought recombinant protein; also called Mouse CD7 protein
T1 sequence (looked up): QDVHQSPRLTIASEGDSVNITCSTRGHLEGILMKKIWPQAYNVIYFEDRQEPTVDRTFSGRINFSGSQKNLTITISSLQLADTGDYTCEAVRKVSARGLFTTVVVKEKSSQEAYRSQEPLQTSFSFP

[2] = target: T2, recombinant protein of the human CD7 extracellular domain, CD7-His (human, UniProt P09564 26-180); experiment: SPR Biacore T200, antibody captured via Fc, human CD7 as analyte
T2 construct: range 25-645; also called human CD7-His protein; recombinant human CD7; not shown: His protein tag
T2 sequence (looked up): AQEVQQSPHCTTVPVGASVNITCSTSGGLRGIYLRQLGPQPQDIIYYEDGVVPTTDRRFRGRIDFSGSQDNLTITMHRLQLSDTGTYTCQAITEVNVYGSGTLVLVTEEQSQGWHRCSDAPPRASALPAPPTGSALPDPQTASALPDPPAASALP

[3] = target: T2, recombinant protein of the human CD7 …; experiment: indirect ELISA, plate coated with 1 µg/ml human CD7, anti-human IgG Fc-HRP
[4] = target: T3, monkey CD7 (Sino Biological, 90993-H08H) (monkey); experiment: indirect ELISA, plate coated with 1 µg/ml monkey CD7, anti-human IgG Fc-HRP
T3 construct: Bought recombinant protein; also called Monkey CD7 protein

Kd [2]: 0.0765 nM
koff [2]: 2.3e-05 s⁻¹
kon [2]: 301000 M⁻¹ s⁻¹
EC50 [3]: 0.209 nM
B1: AHP19509 (Fc fusion)
chain: QVKLEESGGGLVQAGGSLRLSCAASGGTFNRYTMGWFRQAPGKEREFVAAISWSGGSTDYADSVKGRFTISRDNTKNTVYLQMNSLKPEDAAVYYCDTDRMPYRPVAAGILSWEANWGQGTQVTVSS
notes: Alpaca VHH expressed as fusion to human IgG1 Fc; also called AHP19509-VHH; not shown: human IgG1 Fc of expression vector pcDNA3.4-Fc (HuIgG1)
binding result [1]: no binding (tested: 8 µg/ml (about 100 nM))

Kd [2]: 0.12 nM
koff [2]: 6.03e-05 s⁻¹
kon [2]: 502000 M⁻¹ s⁻¹
EC50 [3]: 0.278 nM
EC50 [4]: 7.03 nM
B2: AHP19484 (Fc fusion)
chain: QVKLEESGGGLVQPGGSLRLSCVASGSSFHFAFMGWYRQAPGKQRELVADISPGNSTNYADPVKGRFVISRDNAKNTVYLQMNSLKPEDTAVYFCRDLRSWGAWGRGTQVTVSS
notes: Alpaca VHH expressed as fusion to human IgG1 Fc; also called AHP19484-VHH; not shown: human IgG1 Fc of expression vector pcDNA3.4-Fc (HuIgG1)
binding result [1]: no binding (tested: 8 µg/ml (about 100 nM))

Kd [2]: 0.289 nM
koff [2]: 7.73e-05 s⁻¹
kon [2]: 268000 M⁻¹ s⁻¹
EC50 [3]: 0.168 nM
B3: AHP19485 (Fc fusion)
chain: EVQLVESGGGLVQPGGSLRLSCASSERIFSIHAMGWYRQAPGKQRELVASITIGGSTHYADSVKGRFTISRDNAKNTVYLHMNSLKPEDTAVYYCNSMLLAGTVGGSWGQGTQVTVSS
notes: Alpaca VHH expressed as fusion to human IgG1 Fc; also called AHP19485-VHH; not shown: human IgG1 Fc of expression vector pcDNA3.4-Fc (HuIgG1)
binding result [1]: no binding (tested: 8 µg/ml (about 100 nM))

Source: patent EP4748858A1 (Nanjing Probio Biotech Co., Ltd., dated 2026)
